# Test results as given in US11214614B2, “LTBP complex-specific inhibitors of TGFβ and uses thereof” (Scholar Rock, Inc., priority 2019, dated 2022).
# Positions count from the first letter of the chain named.
# B1: Ab2: TGFβ1 inhibitor test article of a four-week rat toxicology study; b152 gives same data for a context-independent TGFβ1 inhibitor antibody (antibody, V domains shown)
# VH: QVQLVQSGAEVKKPGASVKVSCKASGYTFTSYGISWVRQAPGQGLEWMGWISAYNGNTNYAQKLQGRVTMTTDTSTSTAYMELRSLRSDDTAVYYCARAPLGNFDSWGQGTMVTVSS
# VL: NFMLTQPHSVSESPGKTVTISCTRSSGSIASNYVQWYQQRPGSSPTTVIYEDNQRPSGVPDRFSGSIDSSSNSASLTISGLKTEDEADYYCQSYDSSNHPVVFGGGTKLTVL
# B2: SR-AB42-HuFab: human Fab fragment of SR-AB42 used in SPR (antibody, V domains shown)
# VH: QVQLVESGGGVVQPGRSLRLSCAASGFTFRSYVMHWVRQAPGKGLEWVAVISHEGSLKYYADSVKGRFTISRDNSKNTLYLQMNSLRAEDTAVYYCARPRIAARRGGFGYWGQGTLVTVSS
# VL: B1 VL with S28N, A30D, S31N, S96Y, S97D, N98T, H99Q, P100G
# B3: SR-AB43-HuFab: human Fab fragment of SR-AB43 used in SPR (antibody, V domains shown)
# VH: B2 VH
# VL: B1 VL with S28N, A30D, S31Y, Q54V, S97D, H99Q, P100R
# How the values were obtained:
# [1] = literature reports (Frazier et al. 2007; Stauber et al. 2014, chronic ≥3 months); cited from earlier work
# [2] = Four-week toxicology study in rats; format: in vivo, rat
# Excerpt: Maximally tolerated dose (MTD): The term MTD generally refers to, in the context of safety/toxicology considerations, the highest amount of a test article (such as a TGFβ1 inhibitor) evaluated with no observed adverse effect level (NOAEL).
# Therapeutic window: The term “therapeutic window” refers to a range of doses/concentrations that produces therapeutic response without causing significant/observable/unacceptable adverse effect (e.g., within adverse effects that are acceptable or tolerable) in subjects. Therapeutic window may be calculated as a ratio between […].
# Toxicity: As used herein, the term “toxicity” or “toxicities” refers to unwanted in vivo effects in patients associated with a therapy administered to the patients, such as undesirable side effects and adverse events. “Tolerability” refers to a level of toxicities associated with a therapy or therapeutic regimen, which can be reasonably tolerated by patients, without discontinuing the therapy due to the toxicities (i.e., acceptable level of toxicities). Typically, toxicity/toxicology studies are carried out in one or more preclinical models prior to clinical development to assess safety profiles of a drug candidate (e.g., monoclonal antibody therapy). […]
# [3] = biological target: huLTBP1 proTGFβ1 (Homo sapiens, UniProt P01137+Q14766); assay: SPR (Biacore 8K) monovalent binding kinetics of Fabs, biotinylated antigen captured; set-up: biotin (complex biotinylated); conditions: Fab, huLTBP1 proTGFβ1; SR-AB42-HuFab average of five, SR-AB63-HuFab average of four replicate experiments
# huLTBP1 proTGFβ1, sequence (P01137 30-390): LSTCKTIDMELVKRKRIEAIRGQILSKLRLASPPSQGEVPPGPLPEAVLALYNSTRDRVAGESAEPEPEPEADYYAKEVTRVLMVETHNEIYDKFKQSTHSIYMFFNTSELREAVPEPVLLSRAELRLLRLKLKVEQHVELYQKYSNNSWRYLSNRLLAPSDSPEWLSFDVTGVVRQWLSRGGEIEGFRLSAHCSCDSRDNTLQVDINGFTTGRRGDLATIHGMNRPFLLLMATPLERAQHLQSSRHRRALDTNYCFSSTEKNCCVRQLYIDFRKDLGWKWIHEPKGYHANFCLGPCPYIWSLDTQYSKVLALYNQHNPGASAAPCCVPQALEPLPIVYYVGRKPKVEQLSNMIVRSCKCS
# huLTBP1 proTGFβ1, sequence (Q14766 347-1721 limits assumed): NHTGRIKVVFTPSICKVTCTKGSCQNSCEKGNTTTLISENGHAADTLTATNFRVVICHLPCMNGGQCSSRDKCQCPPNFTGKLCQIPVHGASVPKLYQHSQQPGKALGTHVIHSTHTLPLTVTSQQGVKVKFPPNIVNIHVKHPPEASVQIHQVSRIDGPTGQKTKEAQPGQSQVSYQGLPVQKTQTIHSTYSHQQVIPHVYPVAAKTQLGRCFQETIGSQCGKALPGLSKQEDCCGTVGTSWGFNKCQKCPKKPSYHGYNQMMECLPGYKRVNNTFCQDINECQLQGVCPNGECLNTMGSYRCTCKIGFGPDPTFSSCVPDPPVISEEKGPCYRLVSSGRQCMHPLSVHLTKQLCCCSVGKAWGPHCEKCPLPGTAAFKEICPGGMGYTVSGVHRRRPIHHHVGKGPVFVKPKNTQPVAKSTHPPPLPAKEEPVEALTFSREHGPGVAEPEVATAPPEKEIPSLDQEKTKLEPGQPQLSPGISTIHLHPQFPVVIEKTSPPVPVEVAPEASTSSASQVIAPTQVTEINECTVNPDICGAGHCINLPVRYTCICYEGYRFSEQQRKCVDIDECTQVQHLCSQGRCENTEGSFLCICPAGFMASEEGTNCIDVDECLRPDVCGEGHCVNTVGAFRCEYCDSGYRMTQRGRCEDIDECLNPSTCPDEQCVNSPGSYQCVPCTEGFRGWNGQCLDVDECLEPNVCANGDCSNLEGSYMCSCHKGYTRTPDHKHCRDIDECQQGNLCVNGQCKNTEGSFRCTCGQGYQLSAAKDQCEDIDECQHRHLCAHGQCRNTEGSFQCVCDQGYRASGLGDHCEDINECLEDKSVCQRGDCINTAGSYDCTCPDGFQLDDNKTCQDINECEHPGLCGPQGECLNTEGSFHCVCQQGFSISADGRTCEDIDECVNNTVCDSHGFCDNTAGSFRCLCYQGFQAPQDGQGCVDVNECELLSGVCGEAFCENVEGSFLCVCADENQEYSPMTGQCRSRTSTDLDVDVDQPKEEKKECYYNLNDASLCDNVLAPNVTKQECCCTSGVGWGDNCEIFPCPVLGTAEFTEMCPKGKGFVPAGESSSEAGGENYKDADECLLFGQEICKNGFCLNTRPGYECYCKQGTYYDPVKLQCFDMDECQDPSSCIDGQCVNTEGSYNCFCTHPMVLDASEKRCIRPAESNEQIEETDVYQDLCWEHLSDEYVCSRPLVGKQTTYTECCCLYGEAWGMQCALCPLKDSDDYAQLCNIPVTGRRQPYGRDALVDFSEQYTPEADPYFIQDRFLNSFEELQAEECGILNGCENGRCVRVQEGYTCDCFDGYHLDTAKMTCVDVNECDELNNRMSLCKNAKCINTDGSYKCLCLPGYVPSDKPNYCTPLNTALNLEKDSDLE
# In short: (§1)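 Biotinylated proTGFβ1 complexes (10 nM) captured on Biotin CAPture chip; Fabs injected at 10, 5, 2.5, 1.25, 0.625 nM (0 nM reference), 120 s contact, 900 s dissociation, multi-cycle with regeneration. HBS-EP+ pH 7.4; global 1:1 fit for ka, kd, KD.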
# [4] = biological target: huLTBP3 proTGFβ1 (Homo sapiens, UniProt P01137+Q9NS15); assay: as above; set-up: biotin (complex biotinylated); conditions: Fab, huLTBP3 proTGFb1
# In short: as §1
# [5] = biological target: huGARP proTGFβ1 (Homo sapiens, UniProt P01137); assay: as above; set-up: biotin (complex biotinylated); conditions: Fab, huGARP proTGFb1
# huGARP proTGFβ1, sequence (P01137 30-390): as the sequence (P01137 30-390) above
# huGARP proTGFβ1, sequence (Q14392 18-627 partner limits assumed): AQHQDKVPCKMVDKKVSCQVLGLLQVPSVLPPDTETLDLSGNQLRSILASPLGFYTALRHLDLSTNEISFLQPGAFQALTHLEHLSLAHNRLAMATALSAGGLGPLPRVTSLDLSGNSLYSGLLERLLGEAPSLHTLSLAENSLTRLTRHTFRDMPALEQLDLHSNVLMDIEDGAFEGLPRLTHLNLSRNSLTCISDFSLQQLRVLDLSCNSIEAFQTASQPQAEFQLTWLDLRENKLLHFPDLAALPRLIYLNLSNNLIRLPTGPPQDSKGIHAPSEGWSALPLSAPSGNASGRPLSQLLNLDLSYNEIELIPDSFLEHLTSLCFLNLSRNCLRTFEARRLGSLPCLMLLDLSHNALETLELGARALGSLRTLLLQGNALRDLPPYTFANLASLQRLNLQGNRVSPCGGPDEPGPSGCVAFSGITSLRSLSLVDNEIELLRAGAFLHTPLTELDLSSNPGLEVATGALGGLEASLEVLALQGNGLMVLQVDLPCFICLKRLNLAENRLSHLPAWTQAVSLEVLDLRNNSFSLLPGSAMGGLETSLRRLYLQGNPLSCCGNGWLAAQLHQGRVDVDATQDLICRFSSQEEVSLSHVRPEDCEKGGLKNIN
# In short: as §1
# [6] = biological target: huLRRC33 proTGFβ1 (Homo sapiens, UniProt P01137); assay: as above; set-up: biotin (complex biotinylated); modified human kappa light chain signal peptide (N); Histidine tag (C); conditions: Fab, huLRRC33 proTGFb1
# huLRRC33 proTGFβ1, sequence (P01137 30-390): as the sequence (P01137 30-390) above
# huLRRC33 proTGFβ1, sequence (Q86YC3 with tags, fused parts or gaps partner limits assumed): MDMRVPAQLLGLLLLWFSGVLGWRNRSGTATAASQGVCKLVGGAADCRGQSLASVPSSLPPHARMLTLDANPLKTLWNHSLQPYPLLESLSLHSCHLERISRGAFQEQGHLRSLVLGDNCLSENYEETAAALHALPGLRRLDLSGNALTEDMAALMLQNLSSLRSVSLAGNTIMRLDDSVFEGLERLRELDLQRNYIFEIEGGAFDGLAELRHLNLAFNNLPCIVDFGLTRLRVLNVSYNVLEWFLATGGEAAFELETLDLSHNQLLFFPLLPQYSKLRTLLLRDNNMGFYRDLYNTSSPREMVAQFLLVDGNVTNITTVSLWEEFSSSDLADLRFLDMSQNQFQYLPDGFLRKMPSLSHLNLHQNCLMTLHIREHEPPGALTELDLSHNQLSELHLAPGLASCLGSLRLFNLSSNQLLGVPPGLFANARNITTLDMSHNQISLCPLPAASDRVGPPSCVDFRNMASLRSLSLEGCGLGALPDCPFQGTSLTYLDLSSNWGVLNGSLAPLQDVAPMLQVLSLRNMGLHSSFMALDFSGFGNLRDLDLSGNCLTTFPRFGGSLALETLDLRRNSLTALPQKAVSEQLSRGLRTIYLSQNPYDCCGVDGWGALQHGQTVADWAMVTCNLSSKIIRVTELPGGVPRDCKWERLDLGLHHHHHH
# Experimental: (§2) A Biacore 8K system was employed to determine the monovalent binding affinity and the kinetic parameters for antigen binding of test antibodies. Association and dissociation kinetics of Fab fragments SR-AB42-HuFab, SR-AB63-HuFab and SR-AB43-HuFab to antigen complexes were measured, and resulting ka, kd and KD are provided below. Briefly, the binding kinetics were evaluated by surface plasmon resonance using Biacore 8K (GE Healthcare). Biotinylated capture antigens were immobilized to the chip (10 nM, ˜200 RU loading). A Biotin CAPture sensor chip was used to capture the biotinylated antigens. Fabs at 10, 5, 2.5, 1.25, and 0.6 nM concentrations were injected over the captured antigens. 0 nM was used as a reference. Affinities of LTBP antibodies to GARP and LRRC33 were confirmed using higher concentration of Fabs (100, 50, 25, 12.5, 6.25 nM). 0 nM was used as a reference. Multi-cycle kinetics was employed where each analyte concentration was injected in a separate cycle and the sensor chip surface was regenerated after each cycle. All the assays were carried out in freshly prepared 1×HBS-EP+buffer (10 mM HEPES, 150 mM NaCl, 3 mM EDTA, 0.05% Tween20, pH 7.4). Data were fit globally to a 1:1 binding model to obtain the kinetic parameters. The sensorgram for 0 nM analyte concentration was used as reference.
# (§3) • 96 well plates—Greinerbio-one REF 650101 • Microplate Foils—GE Healthcare—CAT #28-9758-16 • Biotin CAPture Kit GE Healthcare product number 28920233 • Biacore running buffer—supplied as a 20× solution, diluted in Milli-Q water, TEKnova CAT #H8022 Method:
# (§4) These experiments were performed using the Biacore 8K using the method “multi-cycle kinetics/affinity using Biotin CAPture kit.”
# (§5) Data collection rate was set to 10 Hz and the Biotin CAPture step was performed for 300 seconds with a flow rate of 2 μL/minute. The Biotin CAPture reagent was used after a 1:5 dilution in 1× Biacore running buffer. Biotinylated ligands (the various complexes of TGFβ1) were utilized at a concentration of 10 nM and were immobilized to the sensor chip for 180 seconds with a flow rate of 10 μL/minute. The analytes, which are each of the Fabs, were tested at 10, 5, 2.5, 1.25, and 0.625 nM with a 0 nM control included. Analyte contact time was 120 seconds and the dissociation time was 900 seconds. The regeneration cycle utilized was 120 seconds with a flow rate of 10 μL/minute.
# (§6) The evaluation method used was “multi-cycle affinity using capture” and a 1:1 binding model was used. […] Global fits were utilized for every KD determination.
# [7] = biological target: T1, Murine LTBP3 proTGFβ1 (Mus musculus, UniProt P04202+Q61810); assay: as above; conditions: Fab, Murine LTBP3 proTGFb1; average of two replicate experiments
# T1 construct: biotin (complex biotinylated)
# T1 sequence (P04202 30-390): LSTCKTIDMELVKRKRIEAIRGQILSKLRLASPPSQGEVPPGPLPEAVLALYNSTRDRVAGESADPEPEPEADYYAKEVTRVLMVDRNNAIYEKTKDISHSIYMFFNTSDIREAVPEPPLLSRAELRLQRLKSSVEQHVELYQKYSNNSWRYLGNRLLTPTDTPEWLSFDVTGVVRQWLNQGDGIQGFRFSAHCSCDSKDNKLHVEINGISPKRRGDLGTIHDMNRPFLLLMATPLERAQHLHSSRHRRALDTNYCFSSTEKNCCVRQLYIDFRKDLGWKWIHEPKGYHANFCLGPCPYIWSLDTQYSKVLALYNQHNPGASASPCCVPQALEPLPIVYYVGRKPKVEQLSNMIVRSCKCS
# T1 sequence (Q61810 with tags, fused parts or gaps with the stated changes limits assumed): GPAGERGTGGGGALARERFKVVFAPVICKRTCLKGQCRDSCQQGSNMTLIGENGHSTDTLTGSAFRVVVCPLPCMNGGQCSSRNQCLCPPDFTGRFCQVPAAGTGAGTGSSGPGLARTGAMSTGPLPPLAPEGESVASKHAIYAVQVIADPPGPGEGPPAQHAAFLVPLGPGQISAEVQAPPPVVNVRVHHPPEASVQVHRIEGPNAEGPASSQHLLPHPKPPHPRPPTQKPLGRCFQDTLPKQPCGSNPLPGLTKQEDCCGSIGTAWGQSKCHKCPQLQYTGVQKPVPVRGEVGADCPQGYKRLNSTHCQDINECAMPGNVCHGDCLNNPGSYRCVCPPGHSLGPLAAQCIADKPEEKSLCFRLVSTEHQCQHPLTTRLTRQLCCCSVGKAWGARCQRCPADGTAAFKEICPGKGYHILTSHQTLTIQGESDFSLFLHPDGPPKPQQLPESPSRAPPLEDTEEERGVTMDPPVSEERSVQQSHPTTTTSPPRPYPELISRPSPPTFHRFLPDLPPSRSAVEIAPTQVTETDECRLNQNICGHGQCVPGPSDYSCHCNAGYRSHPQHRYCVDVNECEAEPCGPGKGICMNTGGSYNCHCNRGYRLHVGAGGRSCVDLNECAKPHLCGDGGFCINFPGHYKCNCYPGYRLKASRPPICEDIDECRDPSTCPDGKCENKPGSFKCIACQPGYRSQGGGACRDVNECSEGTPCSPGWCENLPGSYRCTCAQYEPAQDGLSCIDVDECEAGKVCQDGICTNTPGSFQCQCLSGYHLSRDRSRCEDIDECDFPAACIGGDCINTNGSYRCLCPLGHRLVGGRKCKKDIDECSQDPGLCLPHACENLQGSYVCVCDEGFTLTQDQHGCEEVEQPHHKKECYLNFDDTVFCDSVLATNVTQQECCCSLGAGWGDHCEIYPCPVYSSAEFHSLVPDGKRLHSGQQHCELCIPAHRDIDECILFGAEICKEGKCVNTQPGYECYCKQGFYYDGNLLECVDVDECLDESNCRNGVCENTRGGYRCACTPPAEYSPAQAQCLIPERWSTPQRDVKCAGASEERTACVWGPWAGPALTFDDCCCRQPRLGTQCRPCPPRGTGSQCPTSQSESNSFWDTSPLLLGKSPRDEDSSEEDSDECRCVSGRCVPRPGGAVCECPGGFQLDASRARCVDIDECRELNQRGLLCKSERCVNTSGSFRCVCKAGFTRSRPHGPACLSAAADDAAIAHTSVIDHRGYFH
# Experimental: as §2, §3, §4, §5, §6
molecule,measurement,setting,value
O=C(NC1CCOCC1)c1ccc(-c2cc(-c3c[nH]nc3-c3ccccn3)ccn2)cc1 [GW788388],Toxicity in rats,[1],induced physeal dysplasia in rats
B1,MTD,[2],> 100 mg/kg
same,NOAEL,[2]; highest dose evaluated,100 mg/kg
B2,ka,[3],543000 M⁻¹ s⁻¹
same,kd,[3],0.000105 s⁻¹
same,ka,[4],405000 M⁻¹ s⁻¹
same,kd,[4],0.000142 s⁻¹
same,ka,[5],155000 M⁻¹ s⁻¹
same,kd,[5],0.00604 s⁻¹
same,ka,[6],80900 M⁻¹ s⁻¹
same,kd,[6],0.00353 s⁻¹
same,ka,[7],1.23e+08 M⁻¹ s⁻¹
same,kd,[7],0.397 s⁻¹
B3,ka,[3],1.03e+06 M⁻¹ s⁻¹
same,kd,[3],0.000284 s⁻¹
same,ka,[7],1.82e+09 M⁻¹ s⁻¹
same,kd,[7],6.37 s⁻¹
